Experiments:
hCD37-M1 = biological target: T1, hCD37-M1 (human/murine chimera, UniProt P11049 1-281); experiment: flow cytometry, 300-19 cells expressing hCD37-M1, 1.5 µg/mL antibody
T1 construct: stably expressed on 300-19 cells; also called hCD37-M1 variant
T1 chain: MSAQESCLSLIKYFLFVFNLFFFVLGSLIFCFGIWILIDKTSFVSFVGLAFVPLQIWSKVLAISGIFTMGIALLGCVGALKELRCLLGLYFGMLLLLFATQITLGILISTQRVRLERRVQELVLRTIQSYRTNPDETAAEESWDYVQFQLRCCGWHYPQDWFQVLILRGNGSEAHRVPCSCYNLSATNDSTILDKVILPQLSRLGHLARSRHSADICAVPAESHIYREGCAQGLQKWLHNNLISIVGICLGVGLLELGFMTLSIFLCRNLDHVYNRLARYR
In short: (§1)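 300-19 cells transfected with human CD37 wildtype or variants (non-transfected as control), 1×10⁵ per sample, incubated 3 h with purified murine antibodies (1.5 μg/mL for variant comparison) in RPMI-1640 with 2% goat serum. Bound antibody detected with FITC goat anti-mouse IgG (1 h), formaldehyde-fixed, analysed by flow cytometry.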

human CD37 = biological target: T2, human CD37 (human, UniProt P11049 1-278); experiment: flow cytometry titration on BJAB cells; apparent Kd
T2 construct: Tetraspanin antigen; Expressed on 300-19 cells transfected with pSRa-CD37 (entire CDS) or endogenous on WSU-DLCL-2, BJAB and Ramos lymphoma cells; also called CD37 antigen; human CD37 wildtype
T2 sequence: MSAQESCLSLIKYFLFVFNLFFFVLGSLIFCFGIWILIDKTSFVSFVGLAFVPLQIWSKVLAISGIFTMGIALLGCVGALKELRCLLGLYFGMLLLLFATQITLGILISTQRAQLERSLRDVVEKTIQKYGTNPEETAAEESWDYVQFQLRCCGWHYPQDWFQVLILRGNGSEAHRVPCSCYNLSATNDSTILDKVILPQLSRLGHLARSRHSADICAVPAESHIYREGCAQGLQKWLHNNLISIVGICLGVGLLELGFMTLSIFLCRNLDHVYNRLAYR
In short: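 BJAB cells were incubated 3 h with titrated antibody in RPMI-1640 containing 2% goat serum, then 1 h with FITC anti-mouse or anti-human IgG, fixed in 1% formaldehyde and read by flow cytometry. Apparent Kd was derived by non-linear regression of the dose-response curves.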

hCD37-M45 = biological target: T3, hCD37-M45 (human/murine chimera, UniProt P11049 1-281); experiment: flow cytometry, 300-19 cells expressing hCD37-M45
T3 construct: stably expressed on 300-19 cells; also called hCD37-M45 variant
T3 chain: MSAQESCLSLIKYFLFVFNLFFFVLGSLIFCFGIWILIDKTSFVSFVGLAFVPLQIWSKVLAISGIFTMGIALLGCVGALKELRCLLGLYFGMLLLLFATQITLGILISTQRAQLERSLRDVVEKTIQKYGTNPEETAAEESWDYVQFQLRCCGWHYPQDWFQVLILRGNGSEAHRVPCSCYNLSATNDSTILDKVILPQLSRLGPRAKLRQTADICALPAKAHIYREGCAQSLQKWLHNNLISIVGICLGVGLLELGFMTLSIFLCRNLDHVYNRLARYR
In short: as §1

hCD37-M3 = biological target: T4, hCD37-M3 (human/murine chimera, UniProt P11049 1-281); experiment: flow cytometry, 300-19 cells expressing hCD37-M3, 1.5 µg/mL antibody
T4 construct: stably expressed on 300-19 cells; also called hCD37-M3 variant
T4 chain: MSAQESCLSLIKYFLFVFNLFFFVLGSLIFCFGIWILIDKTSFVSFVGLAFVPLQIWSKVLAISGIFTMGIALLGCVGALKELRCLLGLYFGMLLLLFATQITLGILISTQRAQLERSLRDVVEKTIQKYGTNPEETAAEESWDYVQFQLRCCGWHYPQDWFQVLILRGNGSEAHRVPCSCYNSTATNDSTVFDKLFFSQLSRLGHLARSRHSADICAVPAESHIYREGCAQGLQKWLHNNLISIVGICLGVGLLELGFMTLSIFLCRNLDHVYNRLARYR
In short: as §1

B1: muCD37-3 (antibody, mouse IgG2a, kappa)
heavy: QVQVKESGPGLVAPSQSLSITCTVSGFSLTTSGVSWVRQPPGKGLEWLGVIWGDGSTNYHSALKSRLSIKKDHSKSQVFLKLNSLQTDDTATYYCAKGGYSLAHWGQGTLVTVSAAKTTAPSVYPLAPVCGDTTGSSVTLGCLVKGYFPEPVTLTWNSGSLSSGVHTFPAVLQSDLYTLSSSVTVTSSTWPSQSITCNVAHPASSTKVDKKIEPRGPTIKPCPPCKCPAPNLLGGPSVFIFPPKIKDVLMISLSPIVTCVVVDVSEDDPDVQISWFVNNVEVHTAQTQTHREDYNSTLRVVSALPIQHQDWMSGKEFKCKVNNKDLPAPIERTISKPKGSVRAPQVYVLPPPEEEMTKKQVTLTCMVTDFMPEDIYVEWTNNGKTELNYKNTEPVLDSDGSYFMYSKLRVEKKNWVERNSYSCSVVHEGLHNHHTTKSFSRTPGK
light: DIQMTQSPASLSVSVGETVTITCRASENIRSNLAWYQQKQGKSPQLLVNVATNLADGVPSRFSGSGSGTQYSLKINSLQSEDFGTYYCQHYWGTTWTFGGGTKLEIKRADAAPTVSIFPPSSEQLTSGGASVVCFLNNFYPKDINVKWKIDGSERQNGVLNSWTDQDSKDSTYSMSSTLTLTKDEYERHNSYTCEATHKTSTSPIVKSFNRNEC
notes: Murine hybridoma antibody; also called murine CD37-3 antibody; muCD37-3-PE
Q: Does B1 bind (hCD37-M1)?
A: binds

Q: What about the Kd (human CD37) of the same binder?
A: 0.2 nM

Q: Does B1 bind (hCD37-M45)?
A: no binding (tested: 1.5 µg/mL)

Q: Does B1 bind (hCD37-M3)?
A: binds
